According to patent US20200048348A1 (TENEOBIO, published 2020):

Biological target: human CD3 (human, UniProt P07766 23-207; P04234 22-171)
Test: flow cytometry, parental monospecific anti-CD3 on Jurkat cells; antibody concentration not given

Chain of human CD3 (P07766 23-207, one chain of several): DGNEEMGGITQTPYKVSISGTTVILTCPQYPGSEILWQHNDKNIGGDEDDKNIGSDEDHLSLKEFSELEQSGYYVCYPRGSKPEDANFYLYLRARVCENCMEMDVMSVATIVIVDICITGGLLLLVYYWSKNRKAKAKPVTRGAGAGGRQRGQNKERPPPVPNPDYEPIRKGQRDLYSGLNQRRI

Jurkat cell bind (MFI) | Binder
30.5 | SEQ ID NO 10 (antibody, IgG1, V domains shown, also called FlicAb) VH: EVQLVESGGGLVQPGRSLRLSCAASGFTFDNYAMHWVRQAPGKGLEWVSGISWNSGSIGYADSVKGRFTISRDNAKNSLYLQMNSLRAEDTALYYCAKDSRGYGDYSRGGAYWGQGTLVTVSS VL: not shown
6.1 | SEQ ID NO 1 (antibody, IgG1, V domains shown, also called FlicAb) VH: EVQLVESGGGLVQPGRSLRLSCAASGFTFDDYAMHWVRQAPGKGLEWVSGISWNSGSIGYADSVKGRFTISRDNAKNSLYLQMNSLRAEDTALYYCAKDSRGYGDYRLGGAYWGQGTLVTVSS VL: not shown
32.4 | SEQ ID NO 7 (antibody, IgG1, V domains shown, also called FlicAb) VH: EVQLVESGGGLVQPGRSLRLSCAASGFTFNNYAMHWVRQAPGKGLEWVSGISWNSGSIGYADSVKGRFTISRDNAKNSLYLQMNSLRGEDTALYYCAKDSRGYGDYSRGGAYWGQGTLVTVSS VL: not shown

More lines, now with the values behind:

Binder | Jurkat cell bind (MFI)
SEQ ID NO 6 (antibody, IgG1, V domains shown, also called FlicAb) VH: EVQLVESGGGLVQPGRSLRLSCAASGFTFANYAMHWVRQAPGKGLEWVSGISWNSGSIDYADSVKGRFTISRDNAKNSLYLQMNSLRAEDTALYYCAKDSRGYGDYSRGGAYWGQGTLVTVSS VL: not shown | 32.7
SEQ ID NO 13 (antibody, IgG1, V domains shown, also called FlicAb) VH: EVQLVESGGGLVQPGRSLRLSCAASGFTFHNYAMHWVRQAPGKGLEWVSGISWNSGSIGYADSVKGRFTISRDNAKNSLYLQMNSLRAEDTALYYCAKDSRGYGDYSLGGAYWGQGTLVTVSS VL: not shown | 21.4
